Results: the supplement of paper PMC12458215
± gives the uncertainty stated by the source.

Tested on: HEK293T
Experiment: plasma membrane surface immunostaining intensity (anti-HA, deep receptor scanning) (arbitrary fluorescence units); higher = higher plasma membrane expression

Sequence	plasma membrane surface immunostaining intensity (GPCR class: A (Olfactory))	plasma membrane surface immunostaining intensity (GPCR class: A)	further results
MENQSSISEFFLRGISAPPEQQQSLFGIFLCMYLVTLTGNLLIILAIGSDLHLHTPMYFFLANLSFVDMGLTSSTVTKMLVNIQTRHHTISYTGCLTQMYFFLMFGDLDSFFLAAMAYDRYVAICHPLCYSTVMRPQVCALMLALCWVLTNIVALTHTFLMARLSFCVTGEIAHFFCDITPVLKLSCSDTHINEMMVFVLGGTVLIVPFLCIVTSYIHIVPAILRVRTRGGVGKAFSTCSSHLCVVCVFYGTLFSAYLCPPSIASEEKDIAAAAMYTIVTPMLNPFIYSLRNKDMKGALKRLFSHRSIVSS [OR1N1]	119 ± 14		
MARENHSLAAEFILIGFTNYPELKTLLFVVFSAIYLVTMVGNLGLVALIYVERRLLTPMYIFLGNLALMDSCCSCAVTPKMLENFFSEDRIISLYECMAQFYFLCLAETTDCFLLATMAYDRYVAICHPLQYHTMMSKTLCIRMTTGAFKAGNLHSMIHVGLLLRLTFCRSNKIHHFFCDILPLYRLSCTDPSINELMIYIFSIPIQIFTIATVLISYLCILLTVFKMKSKEGRGKAFSTCASHFLSVSIFYICLLMYIGPSEEGDKDTPVAIFYAIVIPLLNPFIYSLRNKEVINVLKKIMRNYNILKQTCSIANLFLIY [OR5K4]	254 ± 110		
MLLETQDALYVALELVIAALSVAGNVLVCAAVGTANTLQTPTNYFLVSLAAADVAVGLFAIPFAITISLGFCTDFYGCLFLACFVLVLTQSSIFSLLAVAVDRYLAICVPLRYKSLVTGTRARGVIAVLWVLAFGIGLTPFLGWNSKDSATNNCTEPWDGTTNESCCLVKCLFENVVPMSYMVYFNFFGCVLPPLLIMLVIYIKIFLVACRQLQRTELMDHSRTTLQREIHAAKSLAMIVGIFALCWLPVHAVNCVTLFQPAQGKNKPKWAMNMAILLSHANSVVNPIVYAYRNRDFRYTFHKIISRYLLCQADVKSGNGQAGVQPALGVGL [ADORA2B]		1240 ± 140	
MAEENHTMKNEFILTGFTDHPELKTLLFVVFFAIYLITVVGNISLVALIFTHRRLHTPMYIFLGNLALVDSCCACAITPKMLENFFSENKRISLYECAVQFYFLCTVETADCFLLAAMAYDRYVAICNPLQYHIMMSKKLCIQMTTGAFIAGNLHSMIHVGLVFRLVFCGSNHINHFYCDILPLYRLSCVDPYINELVLFIFSGSVQVFTIGSVLISYLYILLTIFKMKSKEGRAKAFSTCASHFLSVSLFYGSLFFMYVRPNLLEEGDKDIPAAILFTIVVPLLNPFIYSLRNREVISVLRKILMKK [OR5K1]	194 ± 62		
MFLYLCFIFQRTCSEEMEEENATLLTEFVLTGFLHQPDCKIPLFLAFLVIYLITIMGNLGLIVLIWKDPHLHIPMYLFLGSLAFVDASLSSTVTPKMLINFLAKSKMISLSECMVQFFSLVTTVTTECFLLATMAYDRYVAICKALLYPVIMTNELCIQLLVLSFIGGLLHALIHEAFSFRLTFCNSNIIQHFYCDIIPLLKISCTDSSINFLMVFIFAGSVQVFTIGTILISYTIILFTILEKKSIKGIRKAVSTCGAHLLSVSLYYGPLTFKYLGSASPQADDQDMMESLFYTVIVPLLNPMIYSLRNKQVIASFTKMFKSNV [OR5H6]	123 ± 24		
MRPPSPLPARWLCVLAGALAWALGPAGGQAARLQEECDYVQMIEVQHKQCLEEAQLENETIGCSKMWDNLTCWPATPRGQVVVLACPLIFKLFSSIQGRNVSRSCTDEGWTHLEPGPYPIACGLDDKAASLDEQQTMFYGSVKTGYTIGYGLSLATLLVATAILSLFRKLHCTRNYIHMHLFISFILRAAAVFIKDLALFDSGESDQCSEGSVGCKAAMVFFQYCVMANFFWLLVEGLYLYTLLAVSFFSERKYFWGYILIGWGVPSTFTMVWTIARIHFEDYGCWDTINSSLWWIIKGPILTSILVNFILFICIIRILLQKLRPPDIRKSDSSPYSRLARSTLLLIPLFGVHYIMFAFFPDNFKPEVKMVFELVVGSFQGFVVAILYCFLNGEVQAELRRKWRRWHLQGVLGWNPKYRHPSGGSNGATCSTQVSMLTRVSPGARRSSSFQAEVSLV [VIPR1]			plasma membrane surface immunostaining intensity (GPCR class: B): 5730 ± 200
MDFLNSSDQNLTSEELLNRMPSKILVSLTLSGLALMTTTINSLVIAAIIVTRKLHHPANYLICSLAVTDFLVAVLVMPFSIVYIVRESWIMGQVVCDIWLSVDITCCTCSILHLSAIALDRYRAITDAVEYARKRTPKHAGIMITIVWIISVFISMPPLFWRHQGTSRDDECIIKHDHIVSTIYSTFGAFYIPLALILILYYKIYRAAKTLYHKRQASRIAKEEVNGQVLLESGEKSTKSVSTSYVLEKSLSDPSTDFDKIHSTVRSLRSEFKHEKSWRRQKISGTRERKAATTLGLILGAFVICWLPFFVKELVVNVCDKCKISEEMSNFLAWLGYLNSLINPLIYTIFNEDFKKAFQKLVRCRC [HTR1F]		2040 ± 280	
MEGNKTWITDITLPRFQVGPALEILLCGLFSAFYTLTLLGNGVIFGIICLDCKLHTPMYFFLSHLAIVDISYASNYVPKMLTNLMNQESTISFFPCIMQTFLYLAFAHVECLILVVMSYDRYADICHPLRYNSLMSWRVCTVLAVASWVFSFLLALVPLVLILSLPFCGPHEINHFFCEILSVLKLACADTWLNQVVIFAACVFILVGPLCLVLVSYLRILAAILRIQSGEGRRKAFSTCSSHLCVVGLFFGSAIVTYMAPKSRHPEEQQKVLSLFYSLFNPMLNPLIYSLRNAEVKGALRRALRKERLT [OR2A14]	121 ± 40		
MCPMLLKNGYNGNATPVTTTAPWASLGLSAKTCNNVSFEESRIVLVVVYSAVCTLGVPANCLTAWLALLQVLQGNVLAVYLLCLALCELLYTGTLPLWVIYIRNQHRWTLGLLACKVTAYIFFCNIYVSILFLCCISCDRFVAVVYALESRGRRRRRTAILISACIFILVGIVHYPVFQTEDKETCFDMLQMDSRIAGYYYARFTVGFAIPLSIIAFTNHRIFRSIKQSMGLSAAQKAKVKHSAIAVVVIFLVCFAPYHLVLLVKAAAFSYYRGDRNAMCGLEERLYTASVVFLCLSTVNGVADPIIYVLATDHSRQEVSRIHKGWKEWSMKTDVTRLTHSRDTEELQSPVALADHYTFSRPVHPPGSPCPAKRLIEESC [GPR132]		372 ± 74	
MSYFYRLKLMKEAVLVKLPFTSLPLLLQTLSRKSRDMEIKNYSSSTSGFILLGLSSNPQLQKPLFAIFLIMYLLAAVGNVLIIPAIYSDPRLHTPMYFFLSNLSFMDICFTTVIVPKMLVNFLSETKVISYVGCLAQMYFFMAFGNTDSYLLASMAIDRLVAICNPLHYDVVMKPRHCLLMLLGSCSISHLHSLFRVLLMSRLSFCASHIIKHFFCDTQPVLKLSCSDTSSSQMVVMTETLAVIVTPFLCIIFSYLRIMVTVLRIPSAAGKWKAFSTCGSHLTAVALFYGSIIYVYFRPLSMYSVVRDRVATVMYTVVTPMLNPFIYSLRNKDMKRGLKKLQDRIYR [OR1L6]	247 ± 87		
MGMEGLLQNSTNFVLTGLITHPAFPGLLFAIVFSIFVVAITANLVMILLIHMDSRLHTPMYFLLSQLSIMDTIYICITVPKMLQDLLSKDKTISFLGCAVQIFLYLTLIGGEFFLLGLMAYDRYVAVCNPLRYPLLMNRRVCLFMVVGSWVGGSLDGFMLTPVTMSFPFCRSREINHFFCEIPAVLKLSCTDTSLYETLMYACCVLMLLIPLSVISVSYTHILLTVHRMNSAEGRRKAFATCSSHIMVVSVFYGAAFYTNVLPHSYHTPEKDKVVSAFYTILTPMLNPLIYSLRNKDVAAALRKVLGRCGSSQSIRVATVIRKG [OR2T2]	130 ± 17		
METNSSLPTNISGGTPAVSAGYLFLDIITYLVFAVTFVLGVLGNGLVIWVAGFRMTHTVTTISYLNLAVADFCFTSTLPFFMVRKAMGGHWPFGWFLCKFVFTIVDINLFGSVFLIALIALDRCVCVLHPVWTQNHRTVSLAKKVIIGPWVMALLLTLPVIIRVTTVPGKTGTVACTFNFSPWTNDPKERINVAVAMLTVRGIIRFIIGFSAPMSIVAVSYGLIATKIHKQGLIKSSRPLRVLSFVAAAFFLCWSPYQVVALIATVRIRELLQGMYKEIGIAVDVTSALAFFNSCLNPMLYVFMGQDFRERLIHALPASLERALTEDSTQTSDTATNSTLPSAEVELQAK [FPR1]		6448 ± 46	
MDVLSPGQGNNTTSPPAPFETGGNTTGISDVTVSYQVITSLLLGTLIFCAVLGNACVVAAIALERSLQNVANYLIGSLAVTDLMVSVLVLPMAALYQVLNKWTLGQVTCDLFIALDVLCCTSSILHLCAIALDRYWAITDPIDYVNKRTPRRAAALISLTWLIGFLISIPPMLGWRTPEDRSDPDACTISKDHGYTIYSTFGAFYIPLLLMLVLYGRIFRAARFRIRKTVKKVEKTGADTRHGASPAPQPKKSVNGESGSRNWRLGVESKAGGALCANGAVRQGDDGAALEVIEVHRVGNSKEHLPLPSEAGPTPCAPASFERKNERNAEAKRKMALARERKTVKTLGIIMGTFILCWLPFFIVALVLPFCESSCHMPTLLGAIINWLGYSNSLLNPVIYAYFNKDFQNAFKKIIKCKFCRQ [HTR1A]		5670 ± 440	
MEPRNQTSASQFILLGLSEKPEQETLLFSLFFCMYLVMVVGNLLIILAISIDSHLHTPMYFFLANLSLVDFCLATNTIPKMLVSLQTGSKAISYPCCLIQMYFFHFFGIVDSVIIAMMAYDRFVAICHPLHYAKIMSLRLCRLLVGALWAFSCFISLTHILLMARLVFCGSHEVPHYFCDLTPILRLSCTDTSVNRIFILIVAGMVIATPFVCILASYARILVAIMKVPSAGGRKKAFSTCSSHLSVVALFYGTTIGVYLCPSSVLTTVKEKASAVMYTAVTPMLNPFIYSLRNRDLKGALRKLVNRKITSSS [OR1M1]	130 ± 31		
MDAALLHSLLEANCSLALAEELLLDGWGPPLDPEGPYSYCNTTLDQIGTCWPRSAAGALVERPCPEYFNGVKYNTTRNAYRECLENGTWASKINYSQCEPILDDKQRKYDLHYRIALVVNYLGHCVSVAALVAAFLLFLALRSIRCLRNVIHWNLITTFILRNVMWFLLQLVDHEVHESNEVWCRCITTIFNYFVVTNFFWMFVEGCYLHTAIVMTYSTERLRKCLFLFIGWCIPFPIIVAWAIGKLYYENEQCWFGKEPGDLVDYIYQGPIILVLLINFVFLFNIVRILMTKLRASTTSETIQYRKAVKATLVLLPLLGITYMLFFVNPGEDDLSQIMFIYFNSFLQSFQGFFVSVFYCFFNGEVRSAVRKRWHRWQDHHSLRVPMARAMSIPTSPTRISFHSIKQTAAV [CRHR2]			plasma membrane surface immunostaining intensity (GPCR class: B): 2380 ± 560
MQGPLLLPGLCFLLSLFGAVTQKTKTSCAKCPPNASCVNNTHCTCNHGYTSGSGQKLFTFPLETCNDINECTPPYSVYCGFNAVCYNVEGSFYCQCVPGYRLHSGNEQFSNSNENTCQDTTSSKTTEGRKELQKIVDKFESLLTNQTLWRTEGRQEISSTATTILRDVESKVLETALKDPEQKVLKIQNDSVAIETQAITDNCSEERKTFNLNVQMNSMDIRCSDIIQGDTQGPSAIAFISYSSLGNIINATFFEEMDKKDQVYLNSQVVSAAIGPKRNVSLSKSVTLTFQHVKMTPSTKKVFCVYWKSTGQGSQWSRDGCFLIHVNKSHTMCNCSHLSSFAVLMALTSQEEDPVLTVITYVGLSVSLLCLLLAALTFLLCKAIRNTSTSLHLQLSLCLFLAHLLFLVGIDRTEPKVLCSIIAGALHYLYLAAFTWMLLEGVHLFLTARNLTVVNYSSINRLMKWIMFPVGYGVPAVTVAISAASWPHLYGTADRCWLHLDQGFMWSFLGPVCAIFSANLVLFILVFWILKRKLSSLNSEVSTIQNTRMLAFKATAQLFILGCTWCLGLLQVGPAAQVMAYLFTIINSLQGFFIFLVYCLLSQQVQKQYQKWFREIVKSKSESETYTLSSKMGPDSKPSEGDVFPGQVKRKY [ADGRE3]			plasma membrane surface immunostaining intensity (GPCR class: B): 344 ± 13
